According to patent US20220282217A1 (BIONTECH US, published 2022):

Legend:
[1] = molecular target: T1, HLA class I molecule A02.01; experiment: pMHC-I dissociation half-life, 125I-b2m
T1 construct: Purified MHC class I complex; also called HLA-A02:01
Method in brief: (§1)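 Biotinylated MHC-I heavy chain made in E. coli, captured on streptavidin plates and complexed with peptide and radiolabelled light chain. Dissociation started with excess unlabelled light chain at 37 °C. Stability is the half-life in hours from scintillation counts.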

[2] = molecular target: T2, HLA class I molecule B08.01; experiment: pMHC-I dissociation half-life, 125I-b2m
T2 construct: Purified MHC class I complex; also called HLA-B08:01
Method in brief: as §1

[3] = molecular target: T3, HLA class I molecule B07.02; experiment: pMHC-I dissociation half-life, 125I-b2m
T3 construct: Purified MHC class I complex; also called HLA-B07:02
Method in brief: as §1

[4] = molecular target: T4, HLA class I molecule A24.02; experiment: pMHC-I dissociation half-life, 125I-b2m
T4 construct: Purified MHC class I complex; also called HLA-A24:02
Method in brief: as §1

[5] = molecular target: T1, HLA class I molecule A02.01; experiment: competition with radiolabeled reference peptide on purified MHC I
Method: (§2) Peptides were incubated at varying concentrations with these complexes for 2 days, and the amount of remaining radiolabeled peptide bound to […] was measured using size exclusion gel-filtration.

[6] = molecular target: T4, HLA class I molecule A24.02; experiment: as above
Method: as §2

[7] = molecular target: T5, HLA class I molecule A03.01; experiment: pMHC-I dissociation half-life, 125I-b2m
T5 construct: Purified MHC class I complex; also called HLA-A03:01
Method in brief: as §1

[8] = molecular target: T5, HLA class I molecule A03.01; experiment: competition with radiolabeled reference peptide on purified MHC I
Method: as §2

[9] = molecular target: HLA-A*30:02 (human); experiment: peptides eluted from HLA-peptide complexes by acid wash, targeted MS/MS (PRM); 293T cells transduced with GATA3 neoORF, expressing HLA-A*30:02
Method: (§3) Between 50 and 700 million of the transduced cells expressing peptides encoded by the GATA3 neoORF sequence were cultured and peptides were eluted from HLA-peptide complexes using an acid wash. Eluted peptides were then analyzed by targeted MS/MS using PRM.

[10] = molecular target: HLA-B08:01 class I MHC molecule (human); experiment: pMHC-I dissociation at 37 C, 125I-labeled b2m, scintillation counts
Method: (§4) Briefly, synthetic genes encoding biotinylated MHC-I heavy and light chains are expressed in E. coli and purified from inclusion bodies using standard methods. […] These reactions are carried out in streptavidin coated microplates to bind the biotinylated MHC-I heavy chains to the surface and allow measurement of radiolabeled light chain to monitor complex formation. Dissociation is initiated by addition of higher concentrations of unlabeled light-chain and incubation at 37° C. Stability is defined as the length of time in hours it takes for half of the complexes to dissociate, as measured by scintillation counts.

[11] = molecular target: HLA-B08:01 class I MHC molecule (human); experiment: competition with a radiolabeled reference peptide for purified MHC I, gel filtration; 'Affinity (nM)'
Method: as §2

[12] = molecular target: T6, HLA-A01:01 class I MHC molecule (human); experiment: pMHC-I dissociation at 37 C, 125I-labeled b2m, scintillation counts
T6 construct: heavy chain biotinylated and made in E. coli in the stability assay
Method: as §4

[13] = molecular target: HLA-A03:01 class I MHC molecule (human); experiment: as above
Method: as §4

[14] = molecular target: T6, HLA-A01:01 class I MHC molecule; experiment: competition with a radiolabeled reference peptide for purified MHC I, gel filtration; 'Affinity (nM)'
Method: as §2

[15] = molecular target: HLA-A03:01 class I MHC molecule (human); experiment: as above
Method: as §2

[16] = molecular target: HLA-A11:01 class I MHC molecule (human); experiment: competition with a radiolabeled reference peptide for purified MHC I, gel filtration; 'Affinity (nM)'; affinity assay, column 'Affinity (nM)'
Method: as §2

[17] = molecular target: T7, HLA-A01.01 (human); experiment: competition with radiolabeled reference peptide, purified MHC I
T7 construct: Purified class I MHC
Method: as §2

[18] = molecular target: T5, HLA class I molecule A03.01; experiment: pMHC-I dissociation assay with 125I-labeled beta2m light chain at 37 C, scintillation counts; time in hours for half of the complexes to dissociate
Method: as §4

[19] = molecular target: T8, HLA-A02.01 (human); experiment: pMHC-I dissociation half-life, 125I-b2m
T8 construct: Purified class I MHC
Method in brief: as §1

[20] = molecular target: T9, HLA-B08.01 (human); experiment: pMHC-I dissociation half-life, 125I-b2m
T9 construct: Purified class I MHC
Method in brief: as §1

[21] = molecular target: T10, HLA-B07.02 (human); experiment: pMHC-I dissociation half-life, 125I-b2m
T10 construct: Purified class I MHC
Method in brief: as §1

[22] = molecular target: T11, HLA-A03.01 (human); experiment: pMHC-I dissociation half-life, 125I-b2m
T11 construct: Purified class I MHC
Method in brief: as §1

[23] = molecular target: T9, HLA-B08.01; experiment: competition with radiolabeled reference peptide, purified MHC I
Method: as §2

[24] = molecular target: T10, HLA-B07.02; experiment: as above
Method: as §2

[25] = molecular target: T11, HLA-A03.01; experiment: as above
Method: as §2

[26] = molecular target: T12, HLA-A02.01 class I MHC molecule (prepared complex) (human); experiment: dissociation of peptide-MHC-I complex at 37 C, 125I-labelled b2m, scintillation
Method: as §4

[27] = molecular target: T12, HLA-A02.01 class I MHC molecule …; experiment: displacement of radiolabeled reference peptide from class I MHC, gel filtration; 'Affinity (nM)'
Method: as §2

[28] = molecular target: T13, HLA-A11.01 (human); experiment: pMHC-I dissociation assay with 125I-labeled beta2m light chain at 37 C, scintillation counts; time in hours for half of the complexes to dissociate
T13 construct: Purified class I MHC
Method: as §4

[29] = molecular target: T13, HLA-A11.01; experiment: competition binding assay with purified class I MHC: test peptide at varying concentrations displaces a radiolabeled reference peptide, read by size exclusion gel filtration; column 'Observed MHC Affinity (nM)'
Method: as §2

[30] = molecular target: T3, HLA class I molecule B07.02; experiment: competition with radiolabeled reference peptide on purified MHC I
Method: as §2

[31] = molecular target: T14, HLA-A24.02 (human); experiment: pMHC-I dissociation half-life, 125I-b2m
T14 construct: Purified class I MHC
Method in brief: as §1

[32] = molecular target: T8, HLA-A02.01; experiment: competition with radiolabeled reference peptide, purified MHC I
Method: as §2

[33] = molecular target: T14, HLA-A24.02; experiment: as above
Method: as §2

[34] = molecular target: T2, HLA class I molecule B08.01; experiment: competition with radiolabeled reference peptide on purified MHC I
Method: as §2

[35] = molecular target: HLA-A02.01 (human); experiment: pMHC-I complex dissociation at 37 C, 125I-b2m, half-life
Method in brief: as §1

[36] = molecular target: T15, HLA-B07.02 (human); experiment: as above
T15 construct: As for HLA-A02.01
Method in brief: as §1

[37] = molecular target: T15, HLA-B07.02; experiment: competition vs radiolabeled reference peptide on purified MHC I, gel filtration
Method: as §2

[38] = molecular target: T16, HLA-A03.01 (human); experiment: pMHC-I complex dissociation at 37 C, 125I-b2m, half-life
T16 construct: As for HLA-A02.01
Method in brief: as §1

[39] = molecular target: HLA-A02.01 (human); experiment: competition vs radiolabeled reference peptide on purified MHC I, gel filtration
Method: as §2

[40] = molecular target: T16, HLA-A03.01; experiment: as above
Method: as §2

[41] = molecular target: HLA-A24:02 class I MHC molecule (human); experiment: pMHC-I dissociation at 37 C, 125I-labeled b2m, scintillation counts
Method: as §4

[42] = molecular target: HLA-A24:02 class I MHC molecule (human); experiment: competition with a radiolabeled reference peptide for purified MHC I, gel filtration; 'Affinity (nM)'
Method: as §2

[43] = molecular target: HLA-B*40:02 (human); experiment: peptides eluted from HLA-peptide complexes by acid wash, targeted MS/MS (PRM); 293T cells transduced with GATA3 neoORF, expressing HLA-B*40:02
Method: as §3

[44] = molecular target: T1, HLA class I molecule A02.01; experiment: competition binding assay with purified class I MHC: test peptide at varying concentrations displaces a radiolabeled reference peptide, read by size exclusion gel filtration; column 'Observed MHC Affinity (nM)'
Method: as §2

Binder: FQMQPLSLM (also called JAK1(-1))
- Stability (T1/2 (h)) [1]: 0.3 h
- Stability (T1/2 (h)) [2]: 0 h
- Stability (T1/2 (h)) [3]: 0 h
- Stability (T1/2 (h)) [4]: 0 h
- IC50 [5]: 553 nM
- IC50 [6]: 14600 nM

Binder: KVSRENTSPK (also called HER2, L7555)
- Stability (T1/2 (h)) [7]: 13.5 h
- IC50 [8]: 7 nM

Binder: SIMKPKRDGY [GATA3 neoORF peptide SIMKPKRDGY]
- binding result [9]: binds

Binder: SLLNYLREM [BTK_C481S peptide SLLNYLREM]
- Stability (half-life (hr.)) [10]: 0 h
- IC50 [11]: 960 nM

Binder: MANGSLLNYL [BTK_C481S peptide MANGSLLNYL]
- Stability (half-life (hr.)) [10]: 0 h

Binder: YMANGSLLNY [BTK, C481S peptide YMANGSLLNY]
- Stability (half-life (hr.)) [12]: 52 min
- Stability (half-life (hr.)) [13]: 16.7 min
- IC50 [14]: 13.2 nM
- IC50 [15]: 95.9 nM
- IC50 [16]: 974 nM

Binder: MSDTTYKIY (also called TTK(-1))
- IC50 [17]: 10.2 nM

Binder: YMFLKAESK (also called GATA3 . . ; CSNH)
- IC50 [8]: 79.8 nM
- Observed MHC Stability [18]: 0.3 h

Binder: KLMLLRLNL (also called SEC31A(-1))
- Stability (T1/2 (h)) [19]: 16.9 h
- Stability (T1/2 (h)) [20]: 0 h
- Stability (T1/2 (h)) [21]: 1.5 h
- Stability (T1/2 (h)) [22]: 0 h
- IC50 [23]: 58.4 nM
- IC50 [24]: 133 nM
- IC50 [25]: 210 nM

B1: EGFR_T790M peptide LIMQLMPFGC (peptide)
peptide: LIMQLMPFGC
notes: synthetic peptide holding the EGFR T790M mutation
- Stability (half-life (hr.)) [26]: 22.9 min
- IC50 [27]: 132 nM

Binder: KIMFATLQR (also called GATA3 . . ; CSNH)
- IC50 [8]: 2.5 nM
- Observed MHC Stability [18]: 5.6 h
- Observed MHC Stability [28]: 8.9 h
- IC50 [29]: 23 nM

Binder: ALSASNSCF (also called FRG1B, L52S)
- Stability (T1/2 (h)) [1]: 0.3 h
- Stability (T1/2 (h)) [3]: 0 h
- Stability (T1/2 (h)) [4]: 0.2 h
- IC50 [5]: 728 nM
- IC50 [30]: 684 nM
- IC50 [6]: 16300 nM

Binder: MNWRPILTII (also called TP53, R248W)
- Stability (T1/2 (h)) [19]: 0.4 h
- Stability (T1/2 (h)) [31]: 0 h
- IC50 [32]: 1030 nM
- IC50 [33]: 44900 nM

Binder: YQQQQQSDL (also called MYC, E39D)
- Stability (T1/2 (h)) [1]: 0.4 h
- Stability (T1/2 (h)) [2]: 0 h
- IC50 [5]: 799 nM
- IC50 [34]: 18900 nM

Binder: MANGSLLNY [BTK, C481S peptide MANGSLLNY]
- Stability (half-life (hr.)) [12]: 13 min
- Stability (half-life (hr.)) [13]: 14.3 min
- IC50 [15]: 35.6 nM
- IC50 [16]: 536 nM

Binder: VMSDTTYKIY (also called TTK(-1))
- IC50 [17]: 376 nM

B2: KLSDSRTAL (peptide)
peptide: KLSDSRTAL
notes: also called FRG1B, I1OT (so in the source); FRG1B, I10T
- Stability (T1/2 (h)) [35]: 2.8 h
- Stability (T1/2 (h)) [36]: 6.8 h
- IC50 [37]: 9 nM

Binder: KLRSPLWIF (also called SMAP1(-1))
- IC50 [33]: 828 nM

Binder: IMKPKRDGY [GATA3 neoORF peptide IMKPKRDGY]
- binding result [9]: binds

Binder: KLFSCLSFL (also called C15ORF40(+1))
- Stability (T1/2 (h)) [35]: 14.3 h
- Stability (T1/2 (h)) [38]: 0.8 h
- IC50 [39]: 6 nM
- IC50 [40]: 308 nM

Binder: EYMANGSLL [BTK, C481S peptide EYMANGSLL]
- Stability (half-life (hr.)) [41]: 343 min
- IC50 [42]: 4.96 nM

Binder: AESKIMFAT [GATA3 neoORF peptide AESKIMFAT]
- binding result [43]: binds

Binder: AESKIMFATL [GATA3 neoORF peptide AESKIMFATL]
- binding result [43]: binds

Binder: SMLTGPPARV (also called GATA3 . . ; CSNH)
- Stability (T1/2 (h)) [1]: 21.7 h
- IC50 [44]: 14 nM
